The results in this text go back to patent US20220204565A1.

Bridges are numbered along the chain shown (N, C = ends). Where no end group is shown, it is not given here. [ ]: non-standard residue; d: D form. triazolo‑proline = not defined here

The target of this assay is HIV-1 BaL.01 Env gp160 on pseudovirus (HIV-1 BaL.01). The experiment in a line: cell-based or functional assay.

B1: cPT 37 (peptide)
peptide: DNI[4‑(4-((2,2'-bithiophen)-5-yl)-1H-1,2,3-triazol-1-yl)proline]WK-NH2
modifications: lactam 1-6
B1 returned an HIV-1Bal.01 infection inhibition IC50 of 405 nM.

B2: cPT 32 (peptide)
peptide: DNIPWK-NH2
modifications: lactam 1-6; not fully specified (residue 4)
Molecule B2 gave an HIV-1Bal.01 infection inhibition IC50 of 7300 nM.

B3: cPT 5 (peptide)
peptide: [dD]NI[triazolo‑proline]WK-NH2
modifications: lactam 1-6; not fully specified; reading uncertain
In turn, B3 displayed an HIV-1 infection inhibition, fold decrease in activity against cPT 3 of 7 fold.

B4: cPT 14 (peptide)
peptide: DNI[triazolo‑Pro][benzothienylalanine]K-NH2
modifications: lactam 1-6; not fully specified
As to B4, the HIV-1Bal.01 infection inhibition IC50 is 170 nM.

B5: cPT 4 (peptide)
peptide: DNI[triazolo‑proline]W[dK]-NH2
modifications: lactam 1-6; not fully specified; reading uncertain
As to B5, the HIV-1 infection inhibition, fold decrease in activity against cPT 3 was > 50 fold.

B6: cPT 31 (peptide)
peptide: DNIPWK-NH2
modifications: lactam 1-6; not fully specified (residue 4)
For B6, the HIV-1Bal.01 infection inhibition IC50 was 1800 nM.

B7: cPT 16 (peptide)
peptide: DNIPWK-NH2
modifications: lactam 1-6; not fully specified (residue 4); also: Pro4 triazole substituent: phenyl joined through two spacer atoms
B7 yielded an HIV-1Bal.01 infection inhibition IC50 of 2020 nM.

B8: cPT 30 (peptide)
peptide: DNIPWK-NH2
modifications: lactam 1-6; not fully specified (residue 4); also: Pro4 triazole substituent: isoquinoline moiety
B8 had an HIV-1Bal.01 infection inhibition IC50 of 5000 nM.

B9: cPT 38 (peptide)
peptide: NIPWK
modifications: N-terminus of Asn 1 acylated by succinic acid whose other carboxyl is amide-bonded to Lys 5 side-chain amine (macrocycle; replaces Asp, no primary NH2); Pro 3 is 4-(4-(4-(thiophen-2-yl)phenyl)-1H-1,2,3-triazol-1-yl)proline; C-terminal amide
B9: the HIV-1Bal.01 cell infection inhibition IC50 was determined as 882 nM and the HIV-1 infection inhibition, fold decrease in potency against cPT 36 is 8 fold.

B10: cPT 33 (peptide)
peptide: DNIPWK-NH2
modifications: lactam 1-6; not fully specified (residue 4)
On to B10, for which the HIV-1Bal.01 infection inhibition IC50 came out at 6000 nM.
